Values belong to the sequence of their own block, whether it stands above or below them.
Tests used:
HLA-A*01:01 = assay: IEDB peptide-MHC binding, purified MHC/direct/fluorescence; filed as Kd, often an IC50 or EC50 that approximates it; ≥ and ≤ were set here for values at or beyond the usual limits of such assays
HLA-A*02:01 = assay: as above
HLA-A*03:01 = assay: as above
HLA-A*31:01 = assay: as above
HLA-B*07:02 = assay: as above
HLA-B*15:01 [1] = assay: as above
HLA-B*15:17 = assay: as above; settings: source organism: Escherichia coli O157:H7
HLA-B*18:01 = assay: as above
HLA-B*27:05 = assay: as above
HLA-B*57:01 = assay: as above
HLA-B*58:01 = assay: as above
HLA-A*11:01 [2] = assay: IEDB peptide-MHC binding, purified MHC/competitive/fluorescence; filed as Kd, often an IC50 or EC50 that approximates it; ≥ and ≤ were set here for values at or beyond the usual limits of such assays; settings: source organism: Escherichia coli str. K-12 substr. MG1655
HLA-A*26:02 = assay: as above
HLA-A*68:02 [3] = assay: as above; settings: source organism: Escherichia coli str. K-12 substr. MG1655
HLA-A*69:01 = assay: IEDB peptide-MHC binding, purified MHC/direct/fluorescence; filed as Kd, often an IC50 or EC50 that approximates it; ≥ and ≤ were set here for values at or beyond the usual limits of such assays
HLA-C*03:03 = assay: as above
HLA-A*02:50 = assay: IEDB peptide-MHC binding, purified MHC/competitive/fluorescence; filed as Kd, often an IC50 or EC50 that approximates it; ≥ and ≤ were set here for values at or beyond the usual limits of such assays
HLA-A*11:01 [4] = assay: IEDB peptide-MHC binding, purified MHC/direct/fluorescence; filed as Kd, often an IC50 or EC50 that approximates it; ≥ and ≤ were set here for values at or beyond the usual limits of such assays
HLA-A*24:03 = assay: as above; settings: source organism: Yersinia pestis
HLA-A*26:01 [5] = assay: as above
HLA-B*08:01 [6] = assay: as above
HLA-B*40:01 [7] = assay: as above
HLA-B*44:02 = assay: as above
HLA-A*68:02 [8] = assay: as above; settings: source organism: Vibrio parahaemolyticus
HLA-B*08:02 = assay: as above; settings: source organism: Vibrio parahaemolyticus RIMD 2210633
HLA-B*15:09 = assay: as above; settings: source organism: Vibrio parahaemolyticus RIMD 2210633
HLA-B*39:01 [9] = assay: as above
HLA-A*26:01 [10] = assay: IEDB peptide-MHC binding, purified MHC/competitive/fluorescence; filed as Kd, often an IC50 or EC50 that approximates it; ≥ and ≤ were set here for values at or beyond the usual limits of such assays; settings: source organism: Vibrio parahaemolyticus K5030
HLA-B*15:01 [11] = assay: as above
HLA-A*02:03 [12] = assay: IEDB peptide-MHC binding, purified MHC/direct/fluorescence; filed as Kd, often an IC50 or EC50 that approximates it; ≥ and ≤ were set here for values at or beyond the usual limits of such assays; settings: source organism: Bacillus cereus 03BB108
HLA-A*02:12 = assay: as above; settings: source organism: Bacillus cereus 03BB108
HLA-A*02:03 [13] = assay: IEDB peptide-MHC binding, purified MHC/competitive/fluorescence; filed as Kd, often an IC50 or EC50 that approximates it; ≥ and ≤ were set here for values at or beyond the usual limits of such assays; settings: source organism: Homo sapiens
HLA-A*02:06 = assay: as above; settings: source organism: Homo sapiens
HLA-A*30:01 = assay: as above; settings: source organism: Homo sapiens
HLA-B*08:01 [14] = assay: as above; settings: source organism: Homo sapiens
HLA-B*39:01 [15] = assay: as above
HLA-B*40:01 [16] = assay: as above
HLA-C*14:02 = assay: IEDB peptide-MHC binding, purified MHC/direct/fluorescence; filed as Kd, often an IC50 or EC50 that approximates it; ≥ and ≤ were set here for values at or beyond the usual limits of such assays
HLA-A*02:11 = assay: as above; settings: source organism: Mammarenavirus juninense
HLA-A*29:02 = assay: as above; settings: source organism: Mammarenavirus juninense
[17] = source organism: Escherichia coli O157:H7
[18] = source organism: Vibrio parahaemolyticus
[19] = source organism: Vibrio parahaemolyticus RIMD 2210633
[20] = source organism: Yersinia pestis
[21] = source organism: Vibrio parahaemolyticus K5030
[22] = source organism: Bacillus anthracis
[23] = source organism: Escherichia coli APEC O1
[24] = source organism: Vibrio cholerae
[25] = source organism: Mammarenavirus juninense
[26] = source organism: Escherichia coli O139:H28 str. E24377A
[27] = source organism: Cryptosporidium parvum

- Kd (HLA-A*01:01; [17]): ≥ 20 µM
- Kd (HLA-A*02:01; [17]): 6.91 µM
- Kd (HLA-A*03:01; [17]): ≥ 20 µM
- Kd (HLA-A*31:01; [17]): ≥ 20 µM
- Kd (HLA-B*07:02; [17]): 7 µM
- Kd (HLA-B*15:01 [1]; [17]): ≥ 20 µM
- Kd (HLA-B*15:17): ≥ 20 µM
- Kd (HLA-B*18:01; [17]): ≥ 20 µM
- Kd (HLA-B*27:05; [17]): ≥ 20 µM
- Kd (HLA-B*57:01; [17]): ≥ 20 µM
- Kd (HLA-B*58:01; [17]): ≥ 20 µM
- Kd (HLA-A*11:01 [2]): ≥ 20 µM
- Kd (HLA-A*26:02; source organism: Escherichia coli str. K-12 substr. MG1655): 0.565 µM
- Kd (HLA-A*68:02 [3]): 3.54 µM
Sequence: NLPSKPVWL

Sequence: VLNETTNWL
- Kd (HLA-A*69:01; source organism: West Nile virus): ≥ 20 µM
- Kd (HLA-C*03:03; source organism: Japanese encephalitis virus): ≥ 20 µM

Sequence: FQYYGIDWV
- Kd (HLA-A*02:01; [18]): 0.0117 µM
- Kd (HLA-A*69:01; [18]): 0.495 µM
- Kd (HLA-A*02:50; [19]): ≤ 0.0001 µM

Sequence: FMSLQSGDV
- Kd (HLA-A*01:01; [20]): ≥ 20 µM
- Kd (HLA-A*02:01; [20]): ≥ 20 µM
- Kd (HLA-A*03:01; [20]): ≥ 20 µM
- Kd (HLA-A*11:01 [4]; [20]): ≥ 20 µM
- Kd (HLA-A*24:03): ≥ 20 µM
- Kd (HLA-A*26:01 [5]; [20]): ≥ 20 µM
- Kd (HLA-A*31:01; [20]): ≥ 20 µM
- Kd (HLA-A*69:01; [20]): 1.34 µM
- Kd (HLA-B*07:02; [20]): ≥ 20 µM
- Kd (HLA-B*08:01 [6]; [20]): ≥ 20 µM
- Kd (HLA-B*15:01 [1]; [20]): ≥ 20 µM
- Kd (HLA-B*27:05; [20]): ≥ 20 µM
- Kd (HLA-B*40:01 [7]; [20]): ≥ 20 µM
- Kd (HLA-B*44:02; [20]): ≥ 20 µM
- Kd (HLA-B*58:01; [20]): ≥ 20 µM
- Kd (HLA-A*02:50; source organism: Yersinia pestis Nepal516): 0.0025 µM

Sequence: DMRKRIEAF
- Kd (HLA-A*01:01; [18]): ≥ 20 µM
- Kd (HLA-A*02:01; [18]): ≥ 20 µM
- Kd (HLA-A*11:01 [4]; [18]): ≥ 20 µM
- Kd (HLA-A*68:02 [8]): ≥ 20 µM
- Kd (HLA-A*69:01; [18]): ≥ 20 µM
- Kd (HLA-B*07:02; [18]): ≥ 20 µM
- Kd (HLA-B*08:01 [6]; [19]): 0.013 µM
- Kd (HLA-B*08:02): 0.171 µM
- Kd (HLA-B*15:09): ≥ 20 µM
- Kd (HLA-B*18:01; [19]): 0.025 µM
- Kd (HLA-B*39:01 [9]; [19]): ≥ 20 µM
- Kd (HLA-B*57:01; [18]): ≥ 20 µM
- Kd (HLA-B*58:01; [18]): ≥ 20 µM
- Kd (HLA-A*26:01 [10]): ≥ 20 µM
- Kd (HLA-A*26:02; [21]): 0.0073 µM
- Kd (HLA-B*15:01 [11]; [21]): ≥ 20 µM

Sequence: AQMVWIHGV
- Kd (HLA-A*02:01; [22]): 0.0013 µM
- Kd (HLA-A*02:03 [12]): 0.03 µM
- Kd (HLA-A*02:12): 0.071 µM
- Kd (HLA-B*07:02; [22]): ≥ 20 µM
- Kd (HLA-A*02:50; source organism: Bacillus anthracis str. A2012): 0.0003 µM

- Kd (HLA-A*02:03 [13]): ≥ 20 µM
- Kd (HLA-A*02:06): 2.07 µM
- Kd (HLA-A*26:02; source organism: Homo sapiens): ≥ 20 µM
- Kd (HLA-A*30:01): 2.33 µM
- Kd (HLA-B*08:01 [14]): ≥ 20 µM
- Kd (HLA-B*39:01 [15]; source organism: Homo sapiens): ≥ 20 µM
Sequence: VRVCACPGR

- Kd (HLA-B*15:01 [11]; [23]): 0.67 µM
- Kd (HLA-B*40:01 [16]; [23]): 0.0011 µM
Sequence: HESSVSWMF

Sequence: VAAHNAEAM
- Kd (HLA-C*03:03; source organism: Leishmania major strain Friedlin): 0.002 µM

Sequence: FLHPKHWGT
- Kd (HLA-A*01:01; [24]): ≥ 20 µM
- Kd (HLA-A*02:01; [24]): 0.157 µM
- Kd (HLA-A*03:01; [24]): ≥ 20 µM
- Kd (HLA-A*11:01 [4]; [24]): ≥ 20 µM
- Kd (HLA-A*26:01 [5]; [24]): ≥ 20 µM
- Kd (HLA-A*31:01; [24]): ≥ 20 µM
- Kd (HLA-A*69:01; [24]): 3.48 µM
- Kd (HLA-B*07:02; [24]): ≥ 20 µM
- Kd (HLA-B*08:01 [6]; [24]): 0.285 µM
- Kd (HLA-B*15:01 [1]; [24]): ≥ 20 µM
- Kd (HLA-B*27:05; [24]): ≥ 20 µM
- Kd (HLA-B*40:01 [7]; [24]): ≥ 20 µM
- Kd (HLA-B*44:02; [24]): ≥ 20 µM
- Kd (HLA-B*58:01; [24]): ≥ 20 µM
- Kd (HLA-A*02:50; source organism: Vibrio cholerae 2740-80): ≤ 0.0001 µM

Sequence: AASYARYVL
- Kd (HLA-C*14:02; source organism: human gammaherpesvirus 4): 0.491 µM

Sequence: ASSEPHCAL
- Kd (HLA-A*01:01; [25]): ≥ 20 µM
- Kd (HLA-A*02:01; [25]): ≥ 20 µM
- Kd (HLA-A*02:11): 0.04 µM
- Kd (HLA-A*03:01; [25]): ≥ 20 µM
- Kd (HLA-A*29:02): ≥ 20 µM
- Kd (HLA-A*31:01; [25]): ≥ 20 µM
- Kd (HLA-B*18:01; [25]): ≥ 20 µM
- Kd (HLA-B*27:05; [25]): ≥ 20 µM
- Kd (HLA-B*39:01 [9]; [25]): 1.07 µM
- Kd (HLA-B*44:02; [25]): ≥ 20 µM
- Kd (HLA-B*57:01; [25]): ≥ 20 µM
- Kd (HLA-B*58:01; [25]): ≥ 20 µM
- Kd (HLA-C*03:03; [25]): ≤ 0.001 µM

- Kd (HLA-B*15:01 [11]; [26]): 0.152 µM
- Kd (HLA-B*39:01 [15]; [26]): 0.017 µM
- Kd (HLA-B*40:01 [16]; [26]): 0.836 µM
Sequence: LQMLGENVL

Sequence: KAFPLIQNM
- Kd (HLA-B*57:01; [27]): 0.124 µM
- Kd (HLA-B*58:01; [27]): 0.0124 µM
- Kd (HLA-C*14:02; source organism: Cryptosporidium parvum Iowa II): 0.368 µM

From the Immune Epitope Database (IEDB)
